Source: the supplement of paper PMC7877785
± gives the uncertainty stated by the source.

Assay: self-splicing fitness, log relative to wild type (ln ratio); higher = more splicing; Tetrahymena group I intron in knt gene, E. coli kanamycin selection, DiMSum; sequences stand for … in CUCUCU…GGAGGGAAAAGUUAUCAGGCAUGCACCUGGUAGCUAGUCUUUAAACCAAUAGAUUGCAUCGGUUUAAAAGGCAAGACCGUCAAAUUGCGGGAAAGGGGUCAACAGCCGUUCAGUACCAAGUCUCAGGGGAAACUUUGAGAUGGCCUUGCAAAGGGUAUGGUAAUAAGCUGACGGACAUGGUCCUAACCACGCAGCCAAGUCCUAAGUCAACAGAUCUUCUGUUGAUAUGGAUGCAGUUCACAGACUAAAUGUCGGUCGGGGAAGAUGUAUUCUUCUCAUAAGAUAUAGUCGGACCUCUCCUUAAUGGGAGCUAGCGGAUGAAGUGAUGCAACACUGGAGCCGCUGGGAACUAAUUUGUAUGCGAAAGUAUAUUGAUUAGUUUUGGAGUACUCGUGGUCG
Method in brief: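 The eight P1ex-region nucleotides of an intron in the knt kanamycin-resistance gene on pET-22b(+) were all randomised and the library put into E. coli BL21(DE3). Six replicate transformations were grown overnight at 37°C or 30°C on LB agar with or without 25 μg/mL kanamycin, together with 100 μg/mL carbenicillin, 50 μM IPTG and 0.2% rhamnose. Colonies were pooled and amplicon-sequenced on an Illumina HiSeq 2500. Fitness from DiMSum is the error-weighted combination of wild-type-normalised replicate fold changes, kanamycin over none.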

Sequence | self-splicing fitness (ln) (37 °C) | self-splicing fitness (ln) (30 °C)
UUUAAGCAAUAUUACGAACC | 0.0298 ± 0.37 | 
GGUAAGCAAUAUUACGGGAG | -2.88 ± 0.34 | 
ACCUAGCAAUAUUACGACGG | -0.541 ± 0.14 | -1.3 ± 0.089
GCCGAGCAAUAUUACGUGCG | -1.28 ± 0.098 | -2.17 ± 0.11
UAGCAGCAAUAUUACGCACG | -0.318 ± 0.14 | -0.945 ± 0.13
AACGAGCAAUAUUACGGCGA | -0.978 ± 0.2 | -1.95 ± 0.23
AAUGAGCAAUAUUACGGUCU | -0.956 ± 0.13 | -1.96 ± 0.13
GCGGAGCAAUAUUACGUGUG | -2.77 ± 0.29 | -3.19 ± 0.17
GGGUAGCAAUAUUACGCAGU | -1.02 ± 0.11 | -1.34 ± 0.16
AAGGAGCAAUAUUACGUGAA |  | -2.22 ± 0.34
AGUAAGCAAUAUUACGUUAC | -2.61 ± 0.27 | -3.26 ± 0.24
UCAGAGCAAUAUUACGAUAU | -2.32 ± 0.33 | 
AAGUAGCAAUAUUACGGUAC | -1.75 ± 0.18 | -2.65 ± 0.18
CGGCAGCAAUAUUACGUUCG | -1.23 ± 0.16 | 
CUAAAGCAAUAUUACGGAUU | -2.62 ± 0.23 | -4.39 ± 0.22
AGCGAGCAAUAUUACGAACG | -1.5 ± 0.2 | -2.14 ± 0.29
GAUCAGCAAUAUUACGCAUA | -0.0106 ± 0.084 | -0.521 ± 0.082
CCAGAGCAAUAUUACGUGUU | -2.88 ± 0.17 | -3.64 ± 0.16
GCGGAGCAAUAUUACGGUGA |  | -2.38 ± 0.46
GGCCAGCAAUAUUACGUUUU | -1.22 ± 0.079 | -1.31 ± 0.065

Sequence | self-splicing fitness (ln) (37 °C) | self-splicing fitness (ln) (30 °C)
GUUCAGCAAUAUUACGGUAG | -0.531 ± 0.093 | -2.08 ± 0.078
CCUAAGCAAUAUUACGGAUA | -4.12 ± 0.31 | -4.31 ± 0.26
CUGUAGCAAUAUUACGCGAC | -2.41 ± 0.28 | -2.56 ± 0.2
UAACAGCAAUAUUACGGAAU | -2.24 ± 0.15 | -3.31 ± 0.14
UAGUAGCAAUAUUACGCACU | -0.331 ± 0.12 | -0.737 ± 0.11
GCAAAGCAAUAUUACGACCC | -0.0707 ± 0.1 | -1.11 ± 0.073
AACUAGCAAUAUUACGUGAG | -1.03 ± 0.1 | -1.28 ± 0.075
GUUAAGCAAUAUUACGCAUU | -1.1 ± 0.16 | -2.16 ± 0.18
CCGUAGCAAUAUUACGUGGU | -2.12 ± 0.14 | -4.27 ± 0.24
CCCUAGCAAUAUUACGGACC |  | -0.914 ± 0.3
CACGAGCAAUAUUACGCUGA | -2.02 ± 0.3 | -3.57 ± 0.37
AGACAGCAAUAUUACGAAUG | -1.86 ± 0.12 | -2.45 ± 0.11
GACGAGCAAUAUUACGUUUC | -3.33 ± 0.33 | -2.64 ± 0.24
ACUCAGCAAUAUUACGGGAC | -1.6 ± 0.23 | -2.72 ± 0.17
GGAGAGCAAUAUUACGUCGU | -2.5 ± 0.27 | -2.89 ± 0.21
GCACAGCAAUAUUACGGUAA | -0.547 ± 0.079 | -1.06 ± 0.075
UGAUAGCAAUAUUACGGUCU | -0.257 ± 0.15 | -0.913 ± 0.12
AACCAGCAAUAUUACGACGA | -0.38 ± 0.071 | -0.496 ± 0.076
UUUUAGCAAUAUUACGUUCU | -1.17 ± 0.17 | -3.48 ± 0.37
UUAUAGCAAUAUUACGAUUA | -0.272 ± 0.13 | -0.871 ± 0.11
